Measured values taken from US20080166749A1, “Fluorescent Protein Sensors of Post-Translational Modifications” (INVITROGEN CORPORATION, priority 1998, published 2008).

System: activated recombinant MAP kinase
Experiment: Phosphorylation of GFP Erk sensors by MAP kinase, ^32P incorporation
Assay type: biochemical
Settings: 10 μM substrate, 100 ng MAP kinase, 30 minutes at 30° C.; mean ± standard deviation of triplicates
Source text: Experiments were terminated and samples processed as described previously in subsection D.4. Results presented in Table X represent means of triplicate determinations ±standard deviations of ^32P-incorporation in washed pellets as described earlier.

^32P-Incorporation (CPM): 33361 ± 477 CPM
B1: Myelin Basic Protein: a well-characterized substrate of Erk kinase (protein, UniProt P02687 1-169, looked up)
Myelin basic protein: AAQKRPSQRSKYLASASTMDHARHGFLPRHRDTGILDSLGRFFGSDRGAPKRGSGKDGHHAARTTHYGSLPQKAQGHRPQDENPVVHFFKNIVTPRTPPPSQGKGRGLSLSRFSWGAEGQKPGFGYGGRASDYKSAHKGLKGHDAQGTLSKIFKLGGRDSRSGSPMARR
